Measured values: patent publication US6998240B2, “Screen for selective inhibitors or activators of Smad protein function” (Wisconsin Alumni Research Foundation, priority 2001, dated 2006)
No end group written: not given here.

Experiments:
[1] = biological target: phosphorylated Smad2 (His-tagged, full length, from Sf9 cells co-infected with Alk5 T204D virus) (UniProt Q15796); assay: HTRF competition, biotin-FAST on Smad2-P, inhibitor at 20 µM
[2] = biological target: phosphorylated Smad2 (His-tagged, full length, from Sf9 cells co-infected with Alk5 T204D virus) (UniProt Q15796); assay: HTRF competition, biotin-FAST on Smad2-P, inhibitor at 50 µM
[3] = biological target: phosphorylated Smad2 (His-tagged, full length, from Sf9 cells co-infected with Alk5 T204D virus) (UniProt Q15796); assay: HTRF competition against biotinylated FAST peptide
Smad3-P = biological target: T1, Smad3-P (Homo sapiens, UniProt P84022); assay: HTRF assay of FAST / Jun Smad interaction motif peptide binding to Smad3-P
T1 construct: Smad3; 1–425; pBlueBac; His; made in house; host or cells: Sf9 insect cells (baculovirus), co-infected with virus for human Alk5 T204D
Description: The HTRF assay for detecting Smad protein interactions was used to quantify binding between the FAST Smad interaction motif and purified Smad 3 (phosphorylated). The indicated amounts of peptide or peptide aptamer were added as competitive inhibitors.
All three assays use a Eu-chelate α-His epitope tag antibody as the donor. The antibody recognizes the hexahistidine epitope tag on the Smad proteins produced in the baculovirus expression system described above. […] The peptides are synthesized to comprise the Smad interaction domain motif from human FAST or c-Jun (FIG. 3).

Smad2-P = biological target: T2, Smad2-P (Homo sapiens, UniProt Q15796); assay: HTRF assay of biotin-FAST peptide binding to Smad2-P (competition); conditions: for Average Normalized Counts / Percent of Control (minus Background): Biotin-FAST binding to Smad2-P
T2 construct: Smad2; 1–467; pBlueBac; His; made in house; host or cells: Sf9 insect cells (baculovirus), co-infected with virus for membrane-targeted human Alk5 T204D
Excerpt: To establish HTRF assays for Smad protein interactions, we have used reagents from Wallac-Perkin Elmer and Packard that include Europium-cryptate coupled to α-His epitope tag antibody, α-GST antibody or Streptavidin. As acceptor fluorophores we have used allophycocyanin (Packard's XL665) coupled to Streptavidin or direct labeling of GST-fusion protein with IC5 (Dojindo). Reagents are mixed in a 50 microliter volume in the wells of a 384 Black non-treated microwell plate (Corning) and HTRF detected in a Wallac Victor V multimode plate reader. The reader detects emission at 615 nm from the Europium chelate donor and at 665 nm from the APC or IC5 acceptor. Background, cross-talk and high FRET wells can be indicated on the plate map to allow the machine to compute a normalized value as a ratio Rn=(ET/D) Dmax where ET=A−BI−(C×D). • A—Fluorescence at 665 nm • BI—Blank (buffer only) at 665 nm • D—Fluorescence at 615 nm • C—Cross-talk correction value calculated from wells containing only donor fluorophore • (from “Quench Correction for LANCE TR-FRET” by Perkin-Elmer Wallace)
Over the past several months we have developed three HTRF assays for Smad binding interactions. All three assays use a Eu-chelate α-His epitope tag antibody as the donor. The antibody recognizes the hexahistidine epitope tag on the Smad proteins produced in the baculovirus expression system described above. As acceptors, we have used Streptavidin conjugated to allophycocyanin (Packard) that binds to biotinylated peptides. The peptides are synthesized to comprise the Smad interaction domain motif from human FAST or c-Jun (FIG. 3). The FAST 24-mer amino acid sequence is based on the homology between FAST, Mixer and Milk reported by Germain and colleagues (Germain, S., et al., supra, 2000). The24-mer C-JUN sequence is based on studies using deletions and gene fragments to define the Smad interaction motif (Zhang, Y., et al., supra, 1998; Liberati, N. T. et al., Proc. Natl. Acad. Sci. USA 96:4844–9, 1999). We also have developed an HTRF assay using IC5-GST-CBP, a fusion protein comprising the Smad interaction domain motif from CBP (a generous gift of Dr. Yigong Shi, Princeton University).
The assays are done in a 50 μl volume in the well of a 384-well plate. The assay buffer, as recommended by Packard for their HTRF reagents is 50 mM K-Hepes pH 7.0, 400 mM KF and 0.1% BSA. The high concentration of KF is recommended for the Eu(K) reagents from Packard. […] We have also optimized through many titrations the amount of Smad protein (220 ng/well, ˜4 pmoles per well of monomer), the concentration of biotinylated peptide (1 uMolar for FAST and C-JUN), the amount of Eu-anti-His tag antibody (36 ng/well) and the amount of Streptactin-APC (0.5 μg/well).
We used the FAST-SmadP HTRF assay described above. […] After 1 hr at room temperature, Streptavidin-APC was added to each well and 30 minutes later the fluorescence emissions at 615 nm and 665 nm were read in a PE-Wallac Victor V.

[4] = biological target: IC5-labelled GST-CBP fusion protein [GST: P08515]; assay: HTRF, Eu-anti-GST donor plus GST-CBP-IC5 acceptor, well B07
[5] = biological target: IC5-labelled GST-CBP fusion protein [GST: P08515]; assay: HTRF, Eu-anti-GST donor plus GST-CBP-IC5 acceptor, well B08
[6] = biological target: phosphorylated Smad2 (His-tagged, full length, from Sf9 cells co-infected with Alk5 T204D virus) (UniProt Q15796); assay: HTRF competition, biotin-FAST on Smad2-P, inhibitor at 40 µM
[7] = biological target: unphosphorylated Smad2 (His-tagged, full length) (UniProt Q15796); assay: HTRF, well D12 Smad2
[8] = biological target: unphosphorylated Smad2 (His-tagged, full length) (UniProt Q15796); assay: HTRF, well D13 Smad2
[9] = biological target: unphosphorylated Smad2 (His-tagged, full length) (UniProt Q15796); assay: HTRF, well D14 Smad2
[10] = biological target: Smad4 (Strep-tagged, full length) (UniProt Q13485); assay: HTRF, well D17 Smad4
Smad4 (Strep-tagged, full length), sequence (Q13485 whole entry): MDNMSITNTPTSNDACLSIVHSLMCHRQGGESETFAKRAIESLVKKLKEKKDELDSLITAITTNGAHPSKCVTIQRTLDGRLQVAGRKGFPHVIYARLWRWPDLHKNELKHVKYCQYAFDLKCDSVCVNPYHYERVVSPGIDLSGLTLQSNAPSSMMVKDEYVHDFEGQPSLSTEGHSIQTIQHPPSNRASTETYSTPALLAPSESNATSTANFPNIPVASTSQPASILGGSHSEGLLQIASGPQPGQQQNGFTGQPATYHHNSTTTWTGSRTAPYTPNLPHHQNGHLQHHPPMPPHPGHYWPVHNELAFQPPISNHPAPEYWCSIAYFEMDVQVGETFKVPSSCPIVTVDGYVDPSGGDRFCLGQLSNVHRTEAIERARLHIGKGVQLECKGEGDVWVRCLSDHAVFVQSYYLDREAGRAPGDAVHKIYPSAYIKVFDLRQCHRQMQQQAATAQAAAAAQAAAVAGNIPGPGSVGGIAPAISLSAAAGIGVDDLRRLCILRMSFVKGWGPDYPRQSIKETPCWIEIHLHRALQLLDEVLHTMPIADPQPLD

[11] = biological target: Smad4 (Strep-tagged, full length) (UniProt Q13485); assay: HTRF, well D18 Smad4
[12] = biological target: Smad4 (Strep-tagged, full length) (UniProt Q13485); assay: HTRF, well D19 Smad4
[13] = biological target: Smad4 (Strep-tagged, full length) (UniProt Q13485); assay: HTRF, well D20 Smad4
[14] = biological target: phosphorylated Smad2 (His-tagged, full length, from Sf9 cells co-infected with Alk5 T204D virus) (UniProt Q15796); assay: HTRF, well D05 Smad2P
[15] = biological target: phosphorylated Smad2 (His-tagged, full length, from Sf9 cells co-infected with Alk5 T204D virus) (UniProt Q15796); assay: HTRF, well D09 Smad2P
[16] = biological target: phosphorylated Smad3 (His-tagged, full length) (UniProt P84022); assay: HTRF, well D15 Smad3P
phosphorylated Smad3 (His-tagged, full length), sequence (P84022 whole entry): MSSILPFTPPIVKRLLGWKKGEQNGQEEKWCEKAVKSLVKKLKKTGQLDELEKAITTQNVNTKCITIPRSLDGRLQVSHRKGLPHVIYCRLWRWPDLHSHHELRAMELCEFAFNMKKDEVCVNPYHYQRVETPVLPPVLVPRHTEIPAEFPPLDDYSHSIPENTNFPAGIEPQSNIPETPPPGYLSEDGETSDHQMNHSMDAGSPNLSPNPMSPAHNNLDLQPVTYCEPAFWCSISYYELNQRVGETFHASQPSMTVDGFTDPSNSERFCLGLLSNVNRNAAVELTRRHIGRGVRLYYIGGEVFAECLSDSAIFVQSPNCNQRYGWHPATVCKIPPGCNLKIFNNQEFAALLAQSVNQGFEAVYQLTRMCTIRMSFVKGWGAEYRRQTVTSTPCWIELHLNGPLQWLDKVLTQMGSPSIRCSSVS

[17] = biological target: phosphorylated Smad3 (His-tagged, full length) (UniProt P84022); assay: HTRF, well D16 Smad3P
[18] = biological target: unphosphorylated Smad2 (His-tagged, full length) (UniProt Q15796); assay: HTRF, well D11 Smad2 (No Smad well: 260)
[19] = biological target: phosphorylated Smad2 (His-tagged, full length, from Sf9 cells co-infected with Alk5 T204D virus) (UniProt Q15796); assay: HTRF, IC5-GST-CBP binding to Smad2-P, no inhibitor
[20] = biological target: phosphorylated Smad2 (His-tagged, full length, from Sf9 cells co-infected with Alk5 T204D virus) (UniProt Q15796); assay: HTRF, well D06 Smad2P with unlabelled GST-CBP competitor added after equilibrium
[21] = biological target: phosphorylated Smad2 (His-tagged, full length, from Sf9 cells co-infected with Alk5 T204D virus) (UniProt Q15796); assay: HTRF, well D10 Smad2P with unlabelled GST-CBP competitor added after equilibrium

hFAST-24mer PP>AA peptide (from UniProt O75593 327-350)
Average Normalized Counts [1]: 1920 counts | Average Normalized Counts [2]: 1860 counts

GST-trx-FAST aptamer with two amino acids deleted from the N-terminus of the FAST SIM (from UniProt O75593 329-350) (designed binder)
fold higher IC50 than GST-trx-FAST [3]: 10 fold

GST-trx-FAST aptamer with two amino acids deleted from the C-terminus of the FAST SIM (from UniProt O75593 327-348) (designed binder)
fold higher IC50 than GST-trx-FAST [3]: 10 fold

C-JUN: biotinylated 24-mer c-Jun Smad interaction motif peptide, HTRF ligand (LKQKVMNHVNSGCQLMLTQQLQTF; also: biotinylated, site not given here)
time for binding reaction to reach equilibrium (Smad3-P; 1 μM biotinylated peptide): about 90 minutes

GST-trx: 35 kd GST-trx fusion protein, scaffold without SIM insert [reference compound]
effect on binding (in words) (Smad2-P; 8 μg/50 ul): very little effect | competitive inhibition of FAST Smad interaction motif binding to Smad 3 (phosphorylated) (in words) (Smad3-P): did not interfere with binding

Europium-cryptate αGST antibody (Packard)
Emission 665 [4]: 5170 counts | Normalized Counts [4]: 6800 counts | Emission 665 [5]: 9450 counts | Normalized Counts [5]: 9110 counts

cJUN-24mer peptide (unlabelled) (from UniProt P05412 308-331)
Average Normalized Counts [1]: 1980 counts | Percent of Control (minus Background) [1]: 106% | Average Normalized Counts [6]: 1960 counts | Percent of Control (minus Background) [6]: 105%

hFAST-13mer peptide (from UniProt O75593 331-343)
Average Normalized Counts [1]: 2020 counts | Percent of Control (minus Background) [1]: 108% | Average Normalized Counts [2]: 1980 counts | Percent of Control (minus Background) [2]: 106%

IC5-labelled GST-CBP fusion protein (from UniProt P08515 1-218)
Normalized Counts [7]: 315 counts | Normalized Counts [8]: 311 counts | Normalized Counts [9]: 327 counts | Normalized Counts [10]: 149 counts | Normalized Counts [11]: 206 counts | Normalized Counts [12]: 252 counts | Normalized Counts [13]: 150 counts | Normalized Counts [14]: 593 counts | Normalized Counts [15]: 617 counts | Normalized Counts [16]: 665 counts | Normalized Counts [17]: 683 counts | Normalized Counts [18]: 334 counts | Average Normalized Counts [19]: 751 counts | Percent of Control (minus Background) [19]: 100% | Normalized Counts [20]: 322 counts | Normalized Counts [21]: 353 counts

JUN 24 mer: 24-mer peptide of the Smad interaction motif from c-Jun (LKQKVMNHVNSGCQLMLTQQLQTF)
competition for Biotin-FAST binding to Smad-2P (in words) (Smad2-P): inability | Average Normalized Counts (Smad2-P; 20 μM inhibitor peptide): 1984 | Percent of Control (minus Background) (Smad2-P; 20 μM inhibitor peptide): 106% | Average Normalized Counts (Smad2-P; 40 μM inhibitor peptide): 1964 | Percent of Control (minus Background) (Smad2-P; 40 μM inhibitor peptide): 105%
